For experiment [1], the target named is T1, human mutCALR on BaF3 cells stably expressing human MPL and human mutCALR (MPL-mutCALR cells) (human).
T1 construct: also called mutant calreticulin
T1 chain: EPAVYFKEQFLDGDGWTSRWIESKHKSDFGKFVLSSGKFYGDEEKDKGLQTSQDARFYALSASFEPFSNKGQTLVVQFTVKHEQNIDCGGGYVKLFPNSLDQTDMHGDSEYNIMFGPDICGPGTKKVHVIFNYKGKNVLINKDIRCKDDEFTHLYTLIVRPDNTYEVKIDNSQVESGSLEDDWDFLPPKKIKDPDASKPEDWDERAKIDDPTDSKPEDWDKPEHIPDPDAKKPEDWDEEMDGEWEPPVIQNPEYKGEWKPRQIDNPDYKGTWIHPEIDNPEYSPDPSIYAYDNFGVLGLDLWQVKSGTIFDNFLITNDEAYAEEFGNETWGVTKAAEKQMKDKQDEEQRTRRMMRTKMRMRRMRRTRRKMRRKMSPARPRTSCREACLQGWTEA
Briefly: flow cytometry, BaF3 MPL-mutCALR cells. The protocol: On the day of the assay, cells were washed and resuspended in assay buffer. Approximately 200,000 cells/well were added to 96-well plates and stained with the indicated concentration of antibodies for 30 minutes on ice. Cells were then washed and stained with goat anti-human secondary conjugated to R-phycoerythrin (R-PE) (Jackson Immuno Research Laboratories) for 30 minutes on ice. The cells were then washed and analyzed by flow cytometry.
For orientation: A flow cytometer gives signals particle by particle.

For experiment [2], the target named is T2, Recombinant MBP-mutCALR Type 1 fusion protein (human).
T2 construct: custom made at Cepter; also called recombinant mutCALR protein
The experiment is described as follows: SPR, IgG captured, 1:1 fit, Exp. 2. In short, it runs like this:
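Antibodies captured via amine-coupled anti-human IgG (Fc) on a CM4 chip; recombinant MBP-mutCALR Type 1 fusion protein as analyte. Run at 25 °C in Tris-buffered saline pH 7.2, 0.005% P20, 1 mM CaCl₂. Multiple-cycle kinetics fitted to a 1:1 binding model.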
A general note: In SPR one partner is held on a chip, and binding of the other changes the refractive index at the surface.

B1: anti-mutCALR antibody clone 75 (antibody, human IgG1, lambda, N297A, V domains shown)
VH: EVQLVQSGAEVKKPGASVKVSCKVSGYTLTELSMQWVRQAPGKGLEWMGGFDPDDGETMYAEKFQGRLTVTEDTSTDTVYMELRSLTSEDTALYFCATSPGYDFFDYWGQGTLVTVSS
VL: SYVLTQPPSVSVAPGKTARITCGGNNIGSKSVHWYQQKPGQAPVLVVYDDSDRPSGIPERFSGSNSGNTATLTISRVEAGDEADYYCQVWDSSNDLLIFGGGTKLTVLG
With B1, the “MPL-mutCALR AUC” value in experiment [1] turned out to be 84900.

B2: anti-mutCALR antibody clone 177 (antibody, human IgG1, lambda, N297A, V domains shown)
VH: EVQLVQSGAEVKKPGASVKVSCKVSGYTLTELSMQWVRQAPGKGLEWMGGFDPDSGETMYAEKFQGRLTVTEDTSTDTVYMELSSLRSEDTAVYFCATSPGYDFFDYWGQGTLVTVSS
VL: SYVLTQPPSVSVAPGQTARITCGGSDIGDEIVHWYQQKPGQAPVLVVYDDSDRPSGIPERFSGSNSGNTATLTISRAQAGDEADYYCQVWDSSSDHLIFGGGTKLTVLG
notes: human IgG1 N297A variant of clone 17
For orientation: Kd means the free concentration of one partner at which half of the binding sites on the other are occupied at equilibrium, for simple one-to-one binding. Broadly, the koff is the first-order rate constant of dissociation. Broadly, the kon is the second-order rate constant of association. For the molecule B2, in experiment [2], the equilibrium dissociation constant (Kd) came to 1.49 nM, the dissociation rate constant (koff) was determined as 0.00549 s⁻¹ and the kon is 3.7e+06 M⁻¹ s⁻¹.

B3: anti-mutCALR antibody clone 178 (antibody, human IgG1, lambda, N297A, V domains shown)
VH: EVQLVQSGAEVKKPGASVKVSCKVSGYTLTELSMQWVRQAPGKGLEWMGGFDPDEGETMYAEKFQGRLTVTEDTSTDTVYMELSSLRSEDTAVYFCATSPGYDFFDYWGQGTLVTVSS
VL: SYVLTQPPSVSVAPGQTARITCGGSDIGDEIVHWYQQKPGQAPVLVVYDDSDRPSGIPERFSGSNSGNTATLTISRAQAGDEADYYCQVWDSSSDHLIFGGGTKLTVLG
notes: as for B2
Turning to B3, in experiment [2], the Kd was found to be 1.21 nM, the off-rate (koff) was 0.00123 s⁻¹ and the kon was 1.02e+06 M⁻¹ s⁻¹.

B4: anti-mutCALR antibody clone 176 (antibody, human IgG1, lambda, N297A, V domains shown)
VH: EVQLVQSGAEVKKPGASVKVSCKVSGYTLTELSMQWVRQAPGKGLEWMGGFDPDAGETMYAEKFQGRLTVTEDTSTDTVYMELSSLRSEDTAVYFCATSPGYDFFDYWGQGTLVTVSS
VL: SYVLTQPPSVSVAPGQTARITCGGSDIGDEIVHWYQQKPGQAPVLVVYDDSDRPSGIPERFSGSNSGNTATLTISRAQAGDEADYYCQVWDSSSDHLIFGGGTKLTVLG
Take B4: in experiment [2], the dissociation constant (Kd) came out at 2.8 nM, the dissociation rate constant (koff) amounted to 0.00278 s⁻¹ and the kon was 994000 M⁻¹ s⁻¹.

B5: anti-mutCALR antibody clone 175 (antibody, human IgG1, lambda, N297A, V domains shown)
VH: EVQLVQSGAEVKKPGASVKVSCKVSGYTLTELSMQWVRQAPGKGLEWMGGFDPDDGETMYAEKFQGRLTVTEDTSTDTVYMELSSLRSEDTAVYFCATSPGYDFFDYWGQGTLVTVSS
VL: SYVLTQPPSVSVAPGQTARITCGGSDIGDEIVHWYQQKPGQAPVLVVYDDSDRPSGIPERFSGSNSGNTATLTISRAQAGDEADYYCQVWDSSSDHLIFGGGTKLTVLG
notes: as for B2
For B5, in experiment [2], the Kd turned out to be 1.39 nM, the koff was determined as 0.00631 s⁻¹ and the on-rate constant (kon) stood at 4.53e+06 M⁻¹ s⁻¹.

B6: anti-mutCALR antibody clone 84 (antibody, human IgG1, lambda, N297A, V domains shown)
VH: EVQLVQSGAEVKKPGASVKVSCKVSGYTLTELSMQWVRQAPGKGLEWMGGFDPDDAETMYAEKFQGRLTVTEDTSTDTVYMELSSLRSEDTAVYFCATSPGYDFFDYWGQGTLVTVSS
VL: SYVLTQPPSVSVAPGKTARITCGGNNIGSKSVHWYQQKPGQAPVLVVYDDSDRPSGIPERFSGSNSGNTATLTISRVEAGDEADYYCQVWDSSNDLLIFGGGTKLTVLG
Broadly, the EC50 is the concentration giving half of the maximal effect. High values mean a need for much substance, low ones an effect from little substance. Turning to B6, in experiment [1], a half-maximal effect (EC50) was put at 2.9 ng/mL and the “MPL-mutCALR AUC” value turned out to be 82400.

B7: anti-mutCALR antibody clone 79 (antibody, human IgG1, lambda, N297A, V domains shown)
VH: EVQLVQSGAEVKKPGASVKVSCKVSGYTLTELSMQWVRQAPGKGLEWMGGFDPDDAETMYAEKFQGRLTVTEDTSTDTVYMELRSLTSEDTALYFCATSPGYDFFDYWGQGTLVTVSS
VL: SYVLTQPPSVSVAPGKTARITCGGNNIGSKSVHWYQQKPGQAPVLVVYDDSDRPSGIPERFSGSNSGNTATLTISRVEAGDEADYYCQVWDSSNDLLIFGGGTKLTVLG
As to B7, in experiment [1], the EC50 is 3.3 ng/mL and the “MPL-mutCALR AUC” value turned out to be 71900.

B8: anti-mutCALR antibody clone 128 (antibody, human IgG1, lambda, N297A, V domains shown)
VH: EVQLVQSGAEVKKPGASVKVSCKVSGYTLTELSMQWVRQAPGKGLEWMGGFDPDDAETMYAEKFQGRLTVTEDTSTDTVYMELRSLTSEDTALYFCATSPGYDFFDYWGQGTLVTVSS
VL: SYELTQPPSVSVAPGKTARITCGGDNIGSKSVHWYQQKPGQAPVLVVYDDSDRPSGIPERFSGSNSGNTATLTINRVEAGDEADYYCQVWDSSNDLLIFGGGTKLTVLG
For B8, in experiment [1], the “MPL-mutCALR AUC” value amounted to 88900.

B9: anti-mutCALR antibody clone 82 (antibody, human IgG1, lambda, N297A, V domains shown)
VH: EVQLVQSGAEVKKPGASVKVSCKVSGYTLTELSMQWVRQAPGKGLEWMGGFDPDSGETMYAEKFQGRLTVTEDTSTDTVYMELSSLRSEDTAVYFCATSPGYDFFDYWGQGTLVTVSS
VL: SYVLTQPPSVSVAPGKTARITCGGNNIGSKSVHWYQQKPGQAPVLVVYDDSDRPSGIPERFSGSNSGNTATLTISRVEAGDEADYYCQVWDSSNDLLIFGGGTKLTVLG
B9: in experiment [1], the EC50 came out at 4.8 ng/mL and the “MPL-mutCALR AUC” value was 50200.

B10: anti-mutCALR antibody clone 78 (antibody, human IgG1, lambda, N297A, V domains shown)
VH: EVQLVQSGAEVKKPGASVKVSCKVSGYTLTELSMQWVRQAPGKGLEWMGGFDPDEGETMYAEKFQGRLTVTEDTSTDTVYMELRSLTSEDTALYFCATSPGYDFFDYWGQGTLVTVSS
VL: SYVLTQPPSVSVAPGKTARITCGGNNIGSKSVHWYQQKPGQAPVLVVYDDSDRPSGIPERFSGSNSGNTATLTISRVEAGDEADYYCQVWDSSNDLLIFGGGTKLTVLG
On to B10, for which, in experiment [1], a half-maximal effect (EC50) was put at 5.5 ng/mL and the “MPL-mutCALR AUC” value is 64300.

B11: anti-mutCALR antibody clone 77 (antibody, human IgG1, lambda, N297A, V domains shown)
VH: EVQLVQSGAEVKKPGASVKVSCKVSGYTLTELSMQWVRQAPGKGLEWMGGFDPDSGETMYAEKFQGRLTVTEDTSTDTVYMELRSLTSEDTALYFCATSPGYDFFDYWGQGTLVTVSS
VL: SYVLTQPPSVSVAPGKTARITCGGNNIGSKSVHWYQQKPGQAPVLVVYDDSDRPSGIPERFSGSNSGNTATLTISRVEAGDEADYYCQVWDSSNDLLIFGGGTKLTVLG
In the case of B11, in experiment [1], the EC50 was found to be 6.7 ng/mL and the “MPL-mutCALR AUC” value was 54200.

B12: anti-mutCALR antibody clone 83 (antibody, human IgG1, lambda, N297A, V domains shown)
VH: EVQLVQSGAEVKKPGASVKVSCKVSGYTLTELSMQWVRQAPGKGLEWMGGFDPDEGETMYAEKFQGRLTVTEDTSTDTVYMELSSLRSEDTAVYFCATSPGYDFFDYWGQGTLVTVSS
VL: SYVLTQPPSVSVAPGKTARITCGGNNIGSKSVHWYQQKPGQAPVLVVYDDSDRPSGIPERFSGSNSGNTATLTISRVEAGDEADYYCQVWDSSNDLLIFGGGTKLTVLG
As to B12, in experiment [1], the EC50 was found to be 3.4 ng/mL and the “MPL-mutCALR AUC” value was found to be 62800.

B13: anti-mutCALR antibody clone 81 (antibody, human IgG1, lambda, N297A, V domains shown)
VH: EVQLVQSGAEVKKPGASVKVSCKVSGYTLTELSMQWVRQAPGKGLEWMGGFDPDAGETMYAEKFQGRLTVTEDTSTDTVYMELSSLRSEDTAVYFCATSPGYDFFDYWGQGTLVTVSS
VL: SYVLTQPPSVSVAPGKTARITCGGNNIGSKSVHWYQQKPGQAPVLVVYDDSDRPSGIPERFSGSNSGNTATLTISRVEAGDEADYYCQVWDSSNDLLIFGGGTKLTVLG
Regarding B13, in experiment [1], the response was half-maximal at 8.2 ng/mL (EC50) and the “MPL-mutCALR AUC” value stood at 52900.

B14: anti-mutCALR antibody clone 124 (antibody, human IgG1, lambda, N297A)
heavy: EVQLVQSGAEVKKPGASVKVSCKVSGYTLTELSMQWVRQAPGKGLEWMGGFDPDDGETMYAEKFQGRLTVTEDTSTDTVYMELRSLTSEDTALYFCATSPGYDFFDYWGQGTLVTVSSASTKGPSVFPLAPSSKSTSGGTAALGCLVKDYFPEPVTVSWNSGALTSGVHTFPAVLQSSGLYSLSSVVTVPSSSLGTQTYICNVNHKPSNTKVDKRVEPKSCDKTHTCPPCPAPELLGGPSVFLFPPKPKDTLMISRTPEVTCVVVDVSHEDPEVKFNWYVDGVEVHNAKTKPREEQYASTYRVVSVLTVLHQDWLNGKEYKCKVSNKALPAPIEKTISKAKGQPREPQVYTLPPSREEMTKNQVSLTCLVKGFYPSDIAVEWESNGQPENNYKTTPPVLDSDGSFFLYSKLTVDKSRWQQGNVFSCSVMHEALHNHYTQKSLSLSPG
light: SYELTQPPSVSVAPGKTARITCGGDNIGSKSVHWYQQKPGQAPVLVVYDDSDRPSGIPERFSGSNSGNTATLTINRVEAGDEADYYCQVWDSSNDLLIFGGGTKLTVLGQPKAAPSVTLFPPSSEELQANKATLVCLISDFYPGAVTVAWKADSSPVKAGVETTTPSKQSNNKYAASSYLSLTPEQWKSHRSYSCQVTHEGSTVEKTVAPTECS
Regarding B14, the “MPL-mutCALR AUC” value in experiment [1] was 93700.

B15: anti-mutCALR antibody clone 127 (antibody, human IgG1, lambda, N297A, V domains shown)
VH: EVQLVQSGAEVKKPGASVKVSCKVSGYTLTELSMQWVRQAPGKGLEWMGGFDPDEGETMYAEKFQGRLTVTEDTSTDTVYMELRSLTSEDTALYFCATSPGYDFFDYWGQGTLVTVSS
VL: SYELTQPPSVSVAPGKTARITCGGDNIGSKSVHWYQQKPGQAPVLVVYDDSDRPSGIPERFSGSNSGNTATLTINRVEAGDEADYYCQVWDSSNDLLIFGGGTKLTVLG
With B15, in experiment [1], the 50% effective concentration (EC50) was determined as 1.4 ng/mL and the “MPL-mutCALR AUC” value came out at 73500.

B16: anti-mutCALR antibody clone 76 (antibody, human IgG1, lambda, N297A, V domains shown)
VH: EVQLVQSGAEVKKPGASVKVSCKVSGYTLTELSMQWVRQAPGKGLEWMGGFDPDAGETMYAEKFQGRLTVTEDTSTDTVYMELRSLTSEDTALYFCATSPGYDFFDYWGQGTLVTVSS
VL: SYVLTQPPSVSVAPGKTARITCGGNNIGSKSVHWYQQKPGQAPVLVVYDDSDRPSGIPERFSGSNSGNTATLTISRVEAGDEADYYCQVWDSSNDLLIFGGGTKLTVLG
Turning to B16, in experiment [1], a half-maximal response (EC50) required 8.2 ng/mL and the “MPL-mutCALR AUC” value amounted to 55100.

B17: anti-mutCALR antibody clone 125 (antibody, human IgG1, lambda, N297A, V domains shown)
VH: EVQLVQSGAEVKKPGASVKVSCKVSGYTLTELSMQWVRQAPGKGLEWMGGFDPDAGETMYAEKFQGRLTVTEDTSTDTVYMELRSLTSEDTALYFCATSPGYDFFDYWGQGTLVTVSS
VL: SYELTQPPSVSVAPGKTARITCGGDNIGSKSVHWYQQKPGQAPVLVVYDDSDRPSGIPERFSGSNSGNTATLTINRVEAGDEADYYCQVWDSSNDLLIFGGGTKLTVLG
As to B17, in experiment [1], the concentration for a half-maximal effect (EC50) is 2.1 ng/mL and the “MPL-mutCALR AUC” value is 62700.

(Values after patent publication US20230272055A1 (Incyte, published 2023).)
